Data as given in the DeepSol protein solubility set.

Assay: soluble on expression in E. coli; label from the status in PepcDB or PDB records

Which “soluble on expression in E. coli” value does the source give for “MAHHHHHHMAWCDASFSVIYGNEELVVVNKPHDVPMDGEACPVTVEKWAWAYLAKGGCADNNAGGGVEKEDDTTRTAGRRRGEKKMVKFVHQLDYATSGVLCVAFSREMAARLAHCFEMRTTRKAYLAVLFGMMPTTSAMQKKLDTDTGVDFLRGSPYASHVRRVSMDDVPGVCFIRKCVIEASGHEEGENADCCATLLEVNLPVGYDTTDHEGFRMTVNGRDARGSVTYLSVLQRGYMTHPTSGCPVPVTKVALFPRTGRRHQLRVHCHAIGFPILGDVTYARIPTPRVAPKVTGAEEVATVGATESINAPNEIGAIEAWQRMMLHAWRLSFPVSVEPLRSGSERYMQKKKRRRETLGLAVAGGDDTTVWTHFETEDPFQLVRPE” here?
Its value is “not soluble”.

For “MGSDKIHHHHHHMIPLFDLTRQYERIRGEILNAIDKLISSGNVILGENVRRLEEEIASFTGVKHGVGVASGSDALLIALRAMGVEKGDTVVTTPYTFFATASAPYRLGARVIFVDVDESTFNMDLNQLEHVLKKEKVKAIIPVHLFGRTVDLEALSFLREKYGVMILEDCAQSMGSEWKFSSGEIRKSGSVGDAAIFSFFPTKNLGTYGDGGMIVTNSDEIAEESRILRVHGARKKYFHEKVGYNSRLDEIHAAILRVKLRYLERWTEERTRVARTYQKLFEEKKLPVVYPRVEEKGFRYHVFHQYVVLFENEEVRERVREGLKERGIQTAIYYPLPLHLQKCFRDLGYQEGDFPVAESLSKRSLALPMFPELRDDEIKEVVDTIALFL”, which “soluble on expression in E. coli” value is on record?
The value was “not soluble”.

For “MAREATIARTTNETSIQLSLSLDGEGKAELETGVPFLTHMLDLFAKHGQFDLYIEAKGDTHIDDHHTTEDIGICLGQAIKEALGDKKGIKRYGNAFVPMDDALAQVVIDLSNRPHFEFRGEFPATKVGAFDVELVHEFLWKLALEARMNLHVIVHYGRNTHHMIEAVFKALGRALDEATMIDPRVKGVPSTKGML”, which “soluble on expression in E. coli” value is on record?
The value was “not soluble”.

With “GHNLSYSVSANLSNYDARITRYDNPEKVFAKSYYPGMKLGEIWGYHVDGLFASDEEAAQYSSQVDLGVVAKNLPQGTWRAGDLKFADLDGDGKISVGEDSALNPGDMKIIGNELPTLQYGFSGSLNYMGFDIYAFFQGTGNHYWYPNGYNYQFWGSFSDPVAGYIPRNFIDQCWSKDNPGAYFPRPLGQSAKNGQLSFVNDRYLQNIRYMRFKNLTIGYSIPGKILSKVSIQQLRVYFTAENLCYWSPIKKHSKYIDPEAAFSRSSNQLNAMYYPWAKTYMFGIDITL” as the sequence, how does the “soluble on expression in E. coli” value read?
Its value is “not soluble”.

For “MEAVAEHDFQAGSPDELSFKRGNTLKVLNKDEDPHWYKAELDGNEGFIPSNYIRMTECNWYLGKITRNDAEVLLKKPTVRDGHFLVRQCESSPGEFSISVRFQDSVQHFKVLRDQNGKYYLWAVKFNSLNELVAYHRTASVSRTHTILLSDMNVETKFVQALFDFNPQESGELAFKRGDVITLINKDDPNWWEGQLNNRRGIFPSNYVCPYNSNKSNSNVAPGFNFGN”, which “soluble on expression in E. coli” value is on record?
Its value is “not soluble”.

For “MKEEAVRVIEEVLKQGRTAMVEYEAKQVLKAYGLPVPEEKLAKTLDEALEYAKEIGYPVVLKLMSPQILHKSDAKVVMLNIKNEEELKKKWEEIHENAKKYRPDAEILGVLVAPMLKPGREVIIGVTEDPQFGHAIMFGLGGIFVEILKDVTFRLVPITEKDARKMIQEIKAYPILAGARGEEPADIDAIVDMLLKVSKLVDDLKDYIKEMDLNPVFVYNKGEGAVIVDSRIILKPKD”, which “soluble on expression in E. coli” value is on record?
Its value is “soluble”.

For “SLQEAETAARLHEVHGSWQLACAAAAKKDSADAASSTGGETKPPCAIAQVQLEEKTRKLVVSVEFRLDDAATPDRLNGTMVLPFGLAVTKLFSVKSGNMRLQEVQVSTCLPVGCIVSFTPFIELVSALKAEQTLTIEAPDLQGRIVSFQLQGKGFPEALKRLGEVR”, which “soluble on expression in E. coli” value is on record?
The value was “not soluble”.

For “MSQKRSLVFAIRDFPPGCGTHIDVSSSLNHPAEKAFKHPRTGDVSGENLSFAEAKPEGTCLKRESADQDHIFAAPEHNAKREPAGQDHVVAATTVAYATSSHRQKVEIGNSDCDPTPREKVLEVLSLFKQVYNQLDRDKKARRGGDFLDATSRIDLKTLTVLEKMGKQVNTEKRIGSVPGINIGDVFQYKTELRVVGLHSKPMCGIDYIKLGDDRITTSIVASEGYGYNDTYNSGVMVYTGEGGNVINKQKKTEDQKLVKGNLALATSMRQKSQVRVIRGEERLDRKGKRYVYDGLYMVEEYWVERDVRGKSVYKFKLCRIPGQLPLT”, which “soluble on expression in E. coli” value is on record?
Its value is “not soluble”.

With “MAAKLEKTTNSFEVITREWYAKFSPTWNESHGERIIRRFERDIFPWIGSKPISEIAAPELLATVRRIESRGAVETAHRALGNCGQVFRYAIATARATRDISADLRGALPPVKGEHLEHHHHHH” as the sequence, how does the “soluble on expression in E. coli” value read?
The value was “soluble”.

With “MSNKLETGIQYMQEGNWEEAAKNFTEAIEENPKDALGYINFANLLDVLGDSERAILFYKRALELDDKSAAAYYGLGNVYYGQEQFTEAKAVFEQAMQAGLQSADVTFMLGITHVQLGNDRLALPFLQRATELDENDVEAVFQCGLCFARLEHVQEAKPYFEKVLEMDEEHADAYYNLGVAYVFEENNEKALALFKKATEIQPDHFLAGNGVRLLEQEAE” as the sequence, how does the “soluble on expression in E. coli” value read?
The value was “not soluble”.

For “PFSWRHYIVLSRQDLEEYGEEIIAHEYAHIMHKHFRDLLLAEICLLFQWFNPAMWLFRKELKTVHEFEADESVLKAGIDAKKYQLLLI”, which “soluble on expression in E. coli” value is on record?
Its value is “not soluble”.

For “MGSDKIHHHHHHMSTLPHLGFQVYQPCAPLLPYVRCYWQITRIAAPETRSTEFMHPEGGTGIIFNFGAPMHFDGWQHRAQCLVTGPTKQSTRLELSGRVDALGIRFWPGAGRAFLKTPLSEMLGQTLTPADLSLALLSDELAERLAVLPTAPERIALLETRLLHYLTAHGSQTQTTEPSMKYALNWIAEQKGQGEIRNLLTEIDISQRQLERLFQQNLGMSPKNYSILQRTGFARELLKSDTDSPLTDIGYQAGFYDQAHFIREFKQVIGITPGQFRSKALLRR”, which “soluble on expression in E. coli” value is on record?
The value was “not soluble”.

With “MSLKKILILFFSIILSLGMVSCSSSGDYKNVSTSKIKKALKSSDLLIKESKIFDAKDFNYFNDVEEDIIQGFVINSSEKLSLEDIIVIKTDEVDKIYKTLENYKKDMIQAPFGEGHGEKINSEIANNTIIEKAGRYVYLISAENATQIENKILNIIKEGHHHHHH” as the sequence, how does the “soluble on expression in E. coli” value read?
The value was “soluble”.

Which “soluble on expression in E. coli” value does the source give for “MAHHHHHHMSVCARALWQRSRLLCRCLIMCPTPLSTARWRAGHGWLSRKRGDAEAPPSRERRRHPHANTRHSHAHMMALTLDPRWNAMRRGIAGIGVCAVDGRGGAAAPGSCRLSLCSCLSPASSGGCGGADSALSEGGHCRECVCGMRGRLPSPKKPWNSLAGVLVGVRVTHAASVLEDRPVALGRLVSRLSEAAYKAEMLRTGKRDRDGEDRRGDAAQLLVVDAGTRVTVRTEGDPASGAAVAPSAMHMKGTIAKVNGNATYIILMEKGEVELSVASERIVALQPRKKLFQSARLVALV” here?
Its value is “soluble”.

With “TETMTVTATGNARSSFEAPMMVSVIDTSAPENQTATSATDLLRHVPGITLDGTGRTNGQDINMRGYDHRGVLVLVDGIRQGTDTGHLNGTFLDPALIKRVEIVRGPSALLYGSGALGGVISYDTVDAKDLLQEGQSSGFRVFGTGGTGDHSLGLGASAFGRTENLDGIVAWSSRDRGDLRQSNGETAPNDESINNMLAKGTWQIDSAQSLSGLVRYYNNDAREPKNPQTVEASESSNPMVDRSTIQRDAQLSYKLAPQGNDWLNADAKIYWSEVRINAQNTGSSGEYREQITKGARLENRSTLFADSFASHLLTYGGEYYRQEQGSHHHHHHHPGGATTGFPQAKIDFSSGWLQDEITLRDLPITLLGGTRYDSYRGSSDGYKDVDADKWSSRAGMTINPTNWLMLFGSYAQAFRAPTMGEMYNDSKHFSIGRFYTNYWVPNPNLRPETNETQEYGFGLRFDDLMLSNDALEFKASYFDTKAKDYISTTVDFAAATTMSYNVPNAKIWGWDVMTKYTTDLFSLDVAYNRTRGKDTDTGEYISSINPDTVTSTLNIPIAHSGFSVGWVGTFADRSTHISSSYSKQPGYGVNDFYVSYQGQQALKGMTTTLVLGNAFDKEYWSPQGIPQDGRNGKIFVSYQW” as the sequence, how does the “soluble on expression in E. coli” value read?
The value was “soluble”.

For “MPYRNCWSKIMKKLINDVQDVLDEQLAGLAKAHPSLTLHQDPVYVTRADAPVAGKVALLSGGGSGHEPMHCGYIGQGMLSGACPGEIFTSPTPDKIFECAMQVDGGEGVLLIIKNYTGDILNFETATELLHDSGVKVTTVVIDDDVAVKDSLYTAGRRGVANTVLIEKLVGAAAERGDSLDACAELGRKLNNQGHSIGIALGACTVPAAGKPSFTLADNEMEFGVGIHGEPGIDRRPFSSLDQTVDEMFDTLLVNGSYHRTLRFWDYQQGSWQEEQQTKQPLQSGDRVIALVNNLGATPLSELYGVYNRLTTRCQQAGLTIERNLIGAYCTSLDMTGFSITLLKVDDETLALWDAPVHTPALNWGK”, which “soluble on expression in E. coli” value is on record?
The value was “soluble”.
